The record followed here is paper PMC10516418 (2023).

Assay in all cases: BLI
Test [1] concerns the target v3B_Δ9.
For test [2], the target named is v3B_Δ18.
The target of test [3] is v3B_Δ15.

B1: MPE8 antigen-binding fragment (Fab) (Fab, V domains shown)
VH: EVQLVESGGGLVKPGGSLRLSCAASGFTFSSYSMNWVRQAPGKGLEWVSSISASSSYSDYADSAKGRFTISRDNAKTSLFLQMNSLRAEDTAIYFCARARATGYSSITPYFDIWGQGTLVTVSS
VL: QSVVTQTPSVSGAPGQRVTISCTGSSSNIGAGYDVHWYQQLPGTAPKLLIYDNNNRPSGVPDRFSASKSGTSASLAITGLQAEDEADYYCQSYDRNLSGVFGTGTKVTVL
As to B1, the Kd was determined as 87 nM in test [1], 690 nM in test [2] and 62 nM in test [3].

As usually defined, the Kd is the constant that tells how readily two partners part at equilibrium.
